Test results: publication PMC3785238 (Cell, 2013)

B1: BDNF: TrkB receptor ligand (protein, UniProt P21237 19-249, looked up)
Neurotrophic factor BDNF …: APMKEVNVHGQGNLAYPGVRTHGTLESVNGPRAGSRGLTTTSLADTFEHVIEELLDEDQKVRPNEENHKDADLYTSRVMLSSQVPLEPPLLFLLEEYKNYLDAANMSMRVRRHSDPARRGELSVCDSISEWVTAADKKTAVDMSGGTVTVLEKVPVSKGQLKQYFYETKCNPMGYTKEGCRGIDKRHWNSQCRTTQSYVRALTMDSKKRIGWRFIRIDTSCVCTLTIKRGR
B2: Homer1c: constitutively expressed cross-linking Homer protein (protein)
chain: MGEQPIFSTRAHVFQIDPNTKKNWVPTSKHAVTVSYFYDSTRNVYRIISLDGSKAIINSTITPNMTFTKTSQKFGQWADSRANTVYGLGFSSEHHLSKFAEKFQEFKEAARLAKEKSQEKMELTSTPSQESAGGDLQSPLTPESINGTDDERTPDVTQNSEPRAEPAQNALPFSHSAGDRTQGLSHASSAISKHWEAELATLKGNNAKLTAALLESTANVKQWKQQLAAYQEEAERLHKRVTELECVSSQANAVHSHKTELSQTVQELEETLKVKEEEIERLKQEIDNARELQEQRDSLTQKLQEVEIRNKDLEGQLSELEQRLEKSQSEQDAFRSNLKTLLEILDGKIFELTELRDNLAKLLECS
modifications: left off: tag not named ('Tagged transgenes'), end not stated, state not stated

Experiments:
mGluR5 = mGluR5 phosphorylation in cultured striatal neurons; assay type: cell-based; details: primary striatal cultures
mGluR5-SIC = assay type: cell-based, mouse
Pin1-mGluR5 binding = experiment: Co-immunoprecipitation of Pin1 and mGluR5 in HEK293T cells; assay type: cell-based; details: no other Homer

Molecule | mGluR5 phosphorylation in striatal cultures (mGluR5) | mGluR5-SIC amplitude or duration, WT neurons (mGluR5-SIC; BDNF 10 ng/ml, 10 min, WT neurons, n = 14, 40-min monitoring) | mGluR5-SIC potentiation, WT neurons pretreated with KCl (mGluR5-SIC; BDNF 10 ng/ml, 10 min, after KCl pretreatment, n = 6, p < 0.05) | mGluR5-SIC potentiation, Grm5AA/AA neurons (mGluR5-SIC; BDNF 10 ng/ml, 10 min, Grm5AA/AA n = 8, or Homer1a-expressing n = 8) | mGluR5-SIC potentiation, Homer1aW24A mutant or GFP expressing WT neurons (mGluR5-SIC; BDNF 10 ng/ml, 10 min, Homer1aW24A n = 6, GFP n = 5) | mGluR5-SIC potentiation, Homer1c expressing Homer1−/− neurons (mGluR5-SIC; BDNF 10 ng/ml, 10 min, Homer1c viral transgene, n = 8) | mGluR5-SIC potentiation, Homer1-deficient neurons (mGluR5-SIC; BDNF 10 ng/ml, 10 min, Homer1−/−Homer2−/−Homer3−/− (n = 14) or Homer1−/− (n = 11) neurons, charge transfer versus baseline, p < 0.001) | mGluR5-SIC potentiation, Pin1−/− neurons (mGluR5-SIC; BDNF 10 ng/ml, 10 min, Pin1−/− (n = 6) or Homer1a-expressing Pin1−/− (n = 4)) | mGluR5-SIC potentiation, Homer1a expressing WT neurons (mGluR5-SIC; BDNF 10 ng/ml, 10 min, n = 6, p < 0.001) | mGluR5-SIC potentiation, Grm5R/R neurons (mGluR5-SIC; BDNF 10 ng/ml, 10 min, n = 7, p < 0.001, no KCl pretreatment or Homer1a expression needed) | mGluR5-SIC potentiation, Homer1a−/− neurons pretreated with KCl (mGluR5-SIC; BDNF after KCl pretreatment, n = 3) | effect of co-expression on Pin1-mGluR5 binding (Pin1-mGluR5 binding)
B1 | increases mGluR5 phosphorylation | did not alter the amplitude or duration | ~ 1.5 fold | not potentiated | absent | blocked BDNF potentiation | > 2 fold | not potentiated | potentiated | potentiated | not in Homer1a^−/− pre-treated with KCl | –
B2 | – | – | – | – | – | – | – | – | – | – | – | reduced Pin1-mGluR5 binding
